According to patent US20080182978A1, “ANTI-NGF ANTIBODIES AND METHODS USING SAME” (RINAT NEUROSCIENCE CORP, priority 2002, published 2008):

Tests used:
[1] = test system: adjuvant-induced arthritis; experiment: Dose response of E3 on vocalization intensity in arthritic rats (Example 9); format: in vivo, rat
Protocol: The ability of E3 to produce reduction in pain in arthritic rats was further investigated by examining the dose response relationship between E3 administration and pain reduction. Rats were treated with adjuvant to induce arthritis as described above. Ten rats not injected with adjuvant were used as non-arthritic controls. Fourteen days after adjuvant injection, animals were qualified into the study based on the criteria stated above, randomized into eight groups of ten rats and tested for the intensity of their vocalization response. They were then dosed on day 14 with saline, or 0.003 mg/kg, 0.01 mg/kg, 0.03 mg/kg, 0.1 mg/kg, 0.3 mg/kg, 1 mg/kg or 5 mg/kg of E3 antibody as described above. Animals were tested for their vocalization response on days 16, 18, 20, and 24. Animals were redosed with saline or the same dose of E3 on day 18 after the vocalization testing. Animals were also weighed each day, starting at day 14. Thus, animals were dosed twice with a given dose of antibody or saline on days 14 and 18, and assessed for pain five times, on days 14, 16, 18, 20 and 24. Data are shown in Tables 20-22 and in FIGS. 20-22. The effect of treating animals with various doses of anti-NGF antibody E3 on pain induced vocalization (data shown in Table 20) was statistically analyzed by using two-way ANOVA to compare the results obtained pairwise between arthritic animals treated with vehicle with those treated with a given dose of antibody E3. […] Even at the lowest dose tested (0.003 mg/kg of E3), the difference in vocalization was significant (p<0.0001).

[2] = test system: moderate to severe pain from osteoarthritis of the knee; experiment: Clinical study, osteoarthritis of the knee: WOMAC 3.1 index; format: in vivo, human; conditions: day 1 to day 28
Text: Adult males and females (ages between 35 to 65) who were experiencing moderate-to-severe pain from osteoarthritis of the knee, but were in otherwise overall good health were enrolled in the study. During the screening period, patients were required to discontinue arthritis medications such as NSAIDs, cyclooxygenase type-2 (COX-2) inhibitors, and opiates at least 14 days prior to administration of anti-NGF antibody E3. Patients were allowed to use rescue medications of acetaminophen or ibuprofen with some restrictions based on laboratory findings or past medical history. […] Thirty-four patients were admitted to the study and assessed as inpatients for on Study Days -1, 1 and 2. […] The volume for each patient was calculated based on the subject's Day -1 weight and assigned dose level, ranging from 3-6 cc for cohort 1, 10-20 cc for cohort 2, 30-60 cc for cohort 3, and 100 cc for cohort 4 and cohort 5. […] Each domain was scored by determining the means of the VAS scores of the component questions. The total WOMAC 3.1TM was scored by determining the means of the scores from each of the 3 domains. […] Outcome was assessed as change from baseline (pain level during screening period), expressed as pain intensity difference (PID) or summed pain intensity difference (SPID) for different dose levels. […]

B1: E3: humanized, affinity matured anti-NGF antagonist antibody; variable regions SEQ ID NO:1 and 2; human IgG2a (A330P331 to S330S331), kappa (antibody, V domains shown)
VH: QVQLQESGPGLVKPSETLSLTCTVSGFSLIGYDLNWIRQPPGKGLEWIGIIWGDGTTDYNSAVKSRVTISKDTSKNQFSLKLSSVTAADTAVYYCARGGYWYATSYYFDYWGQGTLVTVS
VL: DIQMTQSPSSLSASVGDRVTITCRASQSISNNLNWYQQKPGKAPKLLIYYTSRFHSGVPSRFSGSGSGTDFTFTISSLQPEDIATYYCQQEHTLPYTFGQGTKLEIKRT
modifications: human IgG2a constant (A330S/P331S) and kappa constant missing
With B1 the “effect on pain induced vocalization vs vehicle (two-way ANOVA)” value ([1]; 0.003 to 5 mg/kg, p<0.0001) was “highly significant effect at all levels of E3 tested”, the Vocalization intensity ([1]; E3 0.003 mg/kg on days 14+18, day 14) was 981.75 mV and the Vocalization intensity ([1]; E3 0.003 mg/kg on days 14+18, day 16) was 825.60 mV. For the same molecule, the Vocalization intensity ([1]; E3 0.003 mg/kg on days 14+18, day 18) was 427.43 mV, the Vocalization intensity ([1]; E3 0.003 mg/kg on days 14+18, day 20) was 448.00 mV and the Vocalization intensity ([1]; E3 0.003 mg/kg on days 14+18, day 24) was 724.50 mV. It also gave a Vocalization intensity ([1]; E3 0.01 mg/kg on days 14+18, day 14) of 1007.28 mV, a Vocalization intensity ([1]; E3 0.01 mg/kg on days 14+18, day 16) of 576.88 mV and a Vocalization intensity ([1]; E3 0.01 mg/kg on days 14+18, day 18) of 334.45 mV. It also gave a Vocalization intensity ([1]; E3 0.01 mg/kg on days 14+18, day 20) of 313.13 mV, a Vocalization intensity ([1]; E3 0.01 mg/kg on days 14+18, day 24) of 596.38 mV and a Vocalization intensity ([1]; E3 0.03 mg/kg on days 14+18, day 14) of 963.18 mV. It also gave a Vocalization intensity ([1]; E3 0.03 mg/kg on days 14+18, day 16) of 448.43 mV, a Vocalization intensity ([1]; E3 0.03 mg/kg on days 14+18, day 18) of 292.52 mV and a Vocalization intensity ([1]; E3 0.03 mg/kg on days 14+18, day 20) of 209.48 mV. It also gave a Vocalization intensity ([1]; E3 0.03 mg/kg on days 14+18, day 24) of 513.60 mV, a Vocalization intensity ([1]; E3 0.1 mg/kg on days 14+18, day 14) of 1159.30 mV and a Vocalization intensity ([1]; E3 0.1 mg/kg on days 14+18, day 16) of 283.71 mV. It also gave a Vocalization intensity ([1]; E3 0.1 mg/kg on days 14+18, day 18) of 262.96 mV, a Vocalization intensity ([1]; E3 0.1 mg/kg on days 14+18, day 20) of 79.74 mV and a Vocalization intensity ([1]; E3 0.1 mg/kg on days 14+18, day 24) of 432.45 mV. For the same molecule, the Vocalization intensity ([1]; E3 0.3 mg/kg on days 14+18, day 14) was 1191.58 mV, the Vocalization intensity ([1]; E3 0.3 mg/kg on days 14+18, day 16) was 151.85 mV and the Vocalization intensity ([1]; E3 0.3 mg/kg on days 14+18, day 18) was 194.19 mV. For the same molecule, the Vocalization intensity ([1]; E3 0.3 mg/kg on days 14+18, day 20) was 66.27 mV, the Vocalization intensity ([1]; E3 0.3 mg/kg on days 14+18, day 24) was 176.32 mV and the Vocalization intensity ([1]; E3 1.0 mg/kg on days 14+18, day 14) was 1067.00 mV. It also gave a Vocalization intensity ([1]; E3 1.0 mg/kg on days 14+18, day 16) of 98.62 mV, a Vocalization intensity ([1]; E3 1.0 mg/kg on days 14+18, day 18) of 174.13 mV and a Vocalization intensity ([1]; E3 1.0 mg/kg on days 14+18, day 20) of 71.23 mV. The Vocalization intensity ([1]; E3 1.0 mg/kg on days 14+18, day 24) was 19.21 mV, the “fall of vocalization intensity” value ([1]; E3 1 mg/kg, within two days (earliest time point tested)) was 90% and the Vocalization intensity ([1]; E3 5.0 mg/kg on days 14+18, day 14) was 896.25 mV. For the same molecule, the Vocalization intensity ([1]; E3 5.0 mg/kg on days 14+18, day 16) was 79.18 mV, the Vocalization intensity ([1]; E3 5.0 mg/kg on days 14+18, day 18) was 200.42 mV and the Vocalization intensity ([1]; E3 5.0 mg/kg on days 14+18, day 20) was 63.57 mV. For the same molecule, the Vocalization intensity ([1]; E3 5.0 mg/kg on days 14+18, day 24) was 12.35 mV, the “pain relief at lowest dose” value ([1]; doses as low as 0.003 mg/kg) was “at least partial pain relief” and the “WOMAC pain, physical function and stiffness score” value ([2]; 100 μg/kg) was “reduced significantly”. For the same molecule, the WOMAC score ([2]; single i.v. dose) was “reduced WOMAC score”.
